Reference: patent publication US20230372536A1, “NANOMATERIAL AND METHODS OF USE THEREOF” (UNIVERSITY OF CONNECTICUT, priority 2020, published 2023)

B1: matrilin-3: Recombinant human matrilin-3 protein (R&D Systems), cartilage-specific ECM protein (protein, UniProt O15232 29-486, looked up)
Matrilin-3: DPVARPGFRRLETRGPGGSPGRRPSPAAPDGAPASGTSEPGRARGAGVCKSRPLDLVFIIDSSRSVRPLEFTKVKTFVSRIIDTLDIGPADTRVAVVNYASTVKIEFQLQAYTDKQSLKQAVGRITPLSTGTMSGLAIQTAMDEAFTVEAGAREPSSNIPKVAIIVTDGRPQDQVNEVAARAQASGIELYAVGVDRADMASLKMMASEPLEEHVFYVETYGVIEKLSSRFQETFCALDPCVLGTHQCQHVCISDGEGKHHCECSQGYTLNADKKTCSALDRCALNTHGCEHICVNDRSGSYHCECYEGYTLNEDRKTCSAQDKCALGTHGCQHICVNDRTGSHHCECYEGYTLNADKKTCSVRDKCALGSHGCQHICVSDGAASYHCDCYPGYTLNEDKKTCSATEEARRLVSTEDACGCEATLAFQDKVSSYLQRLNTKLDDILEKLKINEYGQIHR

Key:
[1] = tested on: hMSCs; test: Cell proliferation (CCK-8); type: cell-based, human; conditions: for cell proliferation: 3 or 5 days of culture
Method: Cell proliferation. Five groups of samples were added to an untreated 96-well plate for the cell proliferation experiment. For the JBNT group, 3.75 μL of 1 mg mL^−1 JBNTs was added to 596.25 μL distilled water to obtain a 600 μL JBNT solution. The concentration of the solution was 6.25 μg mL^−1. For the TGF-β1 group, 7.5 μL of 10 μg mL^−1 TGF-β1 was dispersed in 592.5 μL distilled water to obtain a 0.125 μg mL^−1 test solution. For the matrilin-3 group, 30 μL of 10 μg mL^−1 matrilin-3 was dispersed in 570 μL distilled water to obtain a 0.5 μg mL^−1 test solution. For the J/T/M NM group, 7.5 μL of 10 μg mL^−1 TGF-β1 was mixed with 30 μL of 10 μg mL^−1 matrilin-3 and pipetted several times. Then, 3.75 μL of 1 mg mL^−1 JBNTs was added to the solution and pipetted. The J/T/M NM solution was diluted with 558.75 μL distilled water. The final concentrations of JBNT, TGF-β1, and matrilin-3 samples were 6.25 μg mL^−1, 0.125 μg mL^−1, and 0.5 μg mL^−1, respectively. As a control group, 600 μL distilled water was used. Each sample group was divided into 6 wells, with each well receiving a 100 μL sample. The three plates were placed into a −80° C. freezer for one hour and then freeze-dried with a lyophilized instrument.
hMSCs were seeded onto these plates. Each well received 100 μL cell suspension containing 5,000 cells. Three plates were incubated at 37° C. for 1 day, 3 days, or 5 days (5% CO2). After incubation, 10 μL CCK-8 solution was added to each well with cells. Then, each plate was incubated at 37° C. for another 2 h. The absorption values of the plates were measured with multi-mode microplate readers at 450 nm. A series of a known number of hMSCs were seeded onto a 96-well plate. After incubating for 4 h, the absorption values of the cells were measured with the CCK-8 assay. A standard curve was generated according to the absorption values and the numbers of hMSCs. Cell proliferation was calculated with the absorption standard curve.

[2] = free TGF-β1; cited from earlier work
[3] = Zeta-potential test; type: physicochemical; conditions: dispersed in H2O
Method: Zeta-potential test. Three groups of samples were prepared. For the matrilin-3 group, 160 μL of 10 μg mL^−1 matrilin-3 was dispersed in 640 μL H2O to obtain an 800 μL test solution. For the mixed matrilin-3/TGF-β1 group, 160 μL of 10 μg mL^−1 matrilin-3 was mixed with 40 μL of 10 μg mL^−1 TGF-β1 and pipetted several times. The mixture was then dispersed in 600 μL H2O to obtain an 800 μL test solution. For the J/T/M NM group, 160 μL of 10 μg mL^−1 matrilin-3 was mixed with 40 μL of 10 μg mL^−1 TGF-β1 and pipetted several times. Then, 20 μL of 1 mg mL^−1 JBNTs was added to the solution and pipetted several times. Finally, the J/T/M NM solution was dispersed in 580 μL H2O to obtain an 800 μL test solution. The zeta-potential values of the three groups of samples were tested with a Zetasizer Nano ZS.

Molecule	cell proliferation [1]	cell number (proliferation) ([1]; one day of culture)	plasma half-life [2]	zeta-potential [3]
TGF-β1: Recombinant human TGF-β1 (CHO derived, PeproTech), chondrogenic growth factor	more obvious effects related to the promotion of cell proliferation	significantly higher cell numbers	< 1.67 h	–
B1	moderately increase cell proliferation	–	–	approximately −15 mV
